The target of the assay is TAP-Mud13p (S. cerevisiae) (UniProt Q08920). In words: pull-down.
Sequence of UniProt Q08920 (Q08920 whole entry): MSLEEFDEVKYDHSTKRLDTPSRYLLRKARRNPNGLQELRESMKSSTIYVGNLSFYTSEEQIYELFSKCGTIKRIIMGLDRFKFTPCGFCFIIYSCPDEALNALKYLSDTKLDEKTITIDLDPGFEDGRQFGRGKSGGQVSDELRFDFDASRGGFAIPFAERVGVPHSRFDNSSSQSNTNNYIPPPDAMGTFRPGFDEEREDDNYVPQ

B1: Tif4631p Δ491-501 (natural protein)
chain: MTDETAHPTQSASKQESAALKQTGDDQQESQQQRGYTNYNNGSNYTQKKPYNSNRPHQQRGGKFGPNRYNNRGNYNGGGSFRGGHMGANSSNVPWTGYYNNYPVYYQPQQMAAAGSAPANPIPVEEKSPVPTKIEITTKSGEHLDLKEQHKAKLQSQERSTVSPQPESKLKETSDSTSTSTPTPTPSTNDSKASSEENISEAEKTRRNFIEQVKLRKAALEKKRKEQLEGSSGNNNIPMKTTPENVEEKGSDKPEVTEKTKPAEEKSAEPEVKQETPAEEGEQGEKGQIKEESTPKVLTFAERLKLKKQQKEREEKTEGKENKEVPVQEETKSAIESAPVPPSEQVKEETEVAETEQSNIDESATTPAIPTKSDEAEAEVEAEAGDAGTKIGLEAEIETTTDETDDGTNTVSHILNVLKDATPIEDVFSFNYPEGIEGPDIKYKKEHVKYTYGPTFLLQFKDKLNVKADAEWVQSTASKIVIPPGMGRGNSSRGHDFRNTSVRNMDDRANSRTSSKRRSKRMNDDRRSNRSYTSRRDRERGSYRNEEKREDDKPKEEVAPLVPSANRWVPKFKSKKTEKKLAPDGKTELLDKDEVERKMKSLLNKLTLEMFDAISSEILAIANISVWETNGETLKAVIEQIFLKACDEPHWSSMYAQLCGKVVKELNPDITDETNEGKTGPKLVLHYLVARCHAEFDKGWTDKLPTNEDGTPLEPEMMSEEYYAAASAKRRGLGLVRFIGFLYRLNLLTGKMMFECFRRLMKDLTDSPSEETLESVVELLNTVGEQFETDSFRTGQATLEGSQLLDSLFGILDNIIQTAKISSRIKFKLIDIKELRHDKNWNSDKKDNGPKTIQQIHEEEERQRQLKNNSRSNSRRTNNSSNRHSFRRDAPPASKDSFITTRTYSQRNSQRAPPPKEEPAAPTSTATNMFSALMGESDDEE
modifications: 35S-labelled
B1: the percent reduction of the interaction efficiency against wild-type Tif4631p was more than 30%.

These data come from paper PMC4157582.
